The values below come from publication doi:10.1101/2025.07.24.665437, “Consensus DNA Inhibits p53 Aggregation but Fails to Rescue Mutants”.

In this data set the target is p53 DBD WT (UniProt P04637 94-312). As to the kind of experiment: EMSA; protein:DNA 1:1, 9:1, 454:1; binding kept 24 h to 1 month; EMSA on TBE gels; protein in 1X PBS, 1 mM TCEP, pH 7.4; DNA stocks in 50 mM Tris-HCl, 137 mM NaCl, pH 8.1; samples held at 4 C (0 hr) or incubated (37 C, 24 h for aggregation); full EMSA details not in material. The note with it: protein: recombinant; tags: 6xHis-TEV (N-terminal); blunt. In general terms: Mobility shift assays separate free from complexed probe on a gel.
p53 DBD WT, sequence (P04637 94-312): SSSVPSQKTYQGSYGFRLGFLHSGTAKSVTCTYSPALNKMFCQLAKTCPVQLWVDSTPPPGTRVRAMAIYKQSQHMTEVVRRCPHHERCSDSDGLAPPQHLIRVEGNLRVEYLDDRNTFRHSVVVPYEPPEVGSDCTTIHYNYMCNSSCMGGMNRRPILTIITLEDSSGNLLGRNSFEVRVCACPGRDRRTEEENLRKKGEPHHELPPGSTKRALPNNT

B1: p21-RE (dsDNA)
DNA 1: CGCGAACATGTCCCAACATGTTGCGC
DNA 2: GCGCAACATGTTGGGACATGTTCGCG
As to B1, the binding result is reported as “binds”.
